Results as given in publication PMC8310136.

B1: ssDNA competitor (ssDNA)
DNA: TATGCGGGCGAAACTTCTGGGAATAGTCCTGACAACCCCTATTGCGATCAGCTCTTTTGCTAGCTCG
B2: dsDNA competitor (dsDNA)
DNA 1: B1 DNA
DNA 2: CGAGCTAGCAAAAGAGCTGATCGCAATAGGGGTTGTCAGGACTATTCCCAGAAGTTTCGCCCGCATA

Molecular target: NT*MNV VPg (Murine norovirus (MNV), UniProt Q80J95 871-994)
Assay: competition; 100-fold excess over labelled PP9 RNA
Conditions: protein: recombinant, tags: N-terminal His6-StrepII-spidroin NT*-enterokinase site-GGSRS linker, label: none

Binder	binding result	binding result (blunt)
B1	no binding	–
B2	–	no binding
